The target of test [1] is T1, FcγRIa extracellular domain with C-terminal His tag (human, UniProt P12314 16-292).
T1 construct: extracellular domain; soluble receptor expressed in FreeStyle293 cells, used as analyte in Biacore; also called FcgRI; 1a; not shown: His tag attached to the C terminus
Briefly: SPR (Biacore), antibody captured on antigen peptide chip, FcγR as analyte; relative binding. In general terms: Surface plasmon resonance follows binding to a sensor surface in real time, without labels.

The target in test [2] is T2, FcγRIIb extracellular domain with C-terminal His tag (human, UniProt P31994 43-217).
T2 construct: extracellular domain; soluble receptor expressed in FreeStyle293 cells, used as analyte in Biacore; also called FcgRIIb; 2b; not shown: His tag attached to the C terminus
T2 sequence (looked up): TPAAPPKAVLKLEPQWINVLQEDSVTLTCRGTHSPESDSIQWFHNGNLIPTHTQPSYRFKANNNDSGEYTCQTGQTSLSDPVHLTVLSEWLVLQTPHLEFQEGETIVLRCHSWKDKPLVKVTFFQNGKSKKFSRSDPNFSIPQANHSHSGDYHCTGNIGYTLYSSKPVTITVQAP
The test is described as above.

T1 sequence (P12314 16-292): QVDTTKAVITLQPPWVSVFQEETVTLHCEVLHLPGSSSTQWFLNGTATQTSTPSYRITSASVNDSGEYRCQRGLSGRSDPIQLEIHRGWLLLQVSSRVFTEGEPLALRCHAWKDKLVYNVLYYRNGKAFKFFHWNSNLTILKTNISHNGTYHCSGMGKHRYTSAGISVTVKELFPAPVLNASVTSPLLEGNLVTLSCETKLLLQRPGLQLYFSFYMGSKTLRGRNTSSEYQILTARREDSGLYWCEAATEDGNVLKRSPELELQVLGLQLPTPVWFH

B1: GpH7-A5/GpH7-B3 variant E333_01G/GpL16-k0 (antibody, human IgG1, kappa)
heavy 1: not shown
heavy 2: not shown
light: DIVMTQSPLSLPVTPGEPASISCQASESLVHSNRNTYLHWYLQKPGQSPQLLIYKVSNRFSGVPDRFSGSGSGTDFTLKISRVEAEDVGVYYCSQNTHVPPTFGQGTKVEIERTVAAPSVFIFPPSDEQLKSGTASVVCLLNNFYPREAKVQWKVDNALQSGNSQESVTEQDSKDSTYSLSSTLTLSKADYEKHKVYACEVTHQGLSSPVTKSFNRGEC
notes: heterodimerized anti-glypican-3 IgG1; alteration in the GpH7-B3 chain only; also called He Ab
On to B1, for which the He/Con_1a in test [1] is 103 % of control GpH7-A5/GpH7-B3/GpL16-k0 (=100). Also, the He/Con_2b in test [2] is 81.4 % of control GpH7-A5/GpH7-B3/GpL16-k0 (=100).

B2: GpH7-A5/GpH7-B3 variant P271_03V/GpL16-k0 (antibody, human IgG1, kappa)
heavy 1: not shown
heavy 2: not shown
light: DIVMTQSPLSLPVTPGEPASISCQASESLVHSNRNTYLHWYLQKPGQSPQLLIYKVSNRFSGVPDRFSGSGSGTDFTLKISRVEAEDVGVYYCSQNTHVPPTFGQGTKVEIERTVAAPSVFIFPPSDEQLKSGTASVVCLLNNFYPREAKVQWKVDNALQSGNSQESVTEQDSKDSTYSLSSTLTLSKADYEKHKVYACEVTHQGLSSPVTKSFNRGEC
notes: as for B1
Take B2: the He/Con_1a in test [1] was 102 % of control GpH7-A5/GpH7-B3/GpL16-k0 (=100). Moreover, in test [2], the He/Con_2b is 74.8 % of control GpH7-A5/GpH7-B3/GpL16-k0 (=100).

B3: GpH7-A5/GpH7-B3 variant P271_06M/GpL16-k0 (antibody, human IgG1, kappa)
heavy 1: not shown
heavy 2: not shown
light: DIVMTQSPLSLPVTPGEPASISCQASESLVHSNRNTYLHWYLQKPGQSPQLLIYKVSNRFSGVPDRFSGSGSGTDFTLKISRVEAEDVGVYYCSQNTHVPPTFGQGTKVEIERTVAAPSVFIFPPSDEQLKSGTASVVCLLNNFYPREAKVQWKVDNALQSGNSQESVTEQDSKDSTYSLSSTLTLSKADYEKHKVYACEVTHQGLSSPVTKSFNRGEC
notes: as for B1
Consider B3, for which, in test [1], the He/Con_1a was 102 % of control GpH7-A5/GpH7-B3/GpL16-k0 (=100). In test [2], the He/Con_2b is 77.5 % of control GpH7-A5/GpH7-B3/GpL16-k0 (=100).

B4: GpH7-A5/GpH7-B3 variant E333_04F/GpL16-k0 (antibody, human IgG1, kappa)
heavy 1: not shown
heavy 2: not shown
light: DIVMTQSPLSLPVTPGEPASISCQASESLVHSNRNTYLHWYLQKPGQSPQLLIYKVSNRFSGVPDRFSGSGSGTDFTLKISRVEAEDVGVYYCSQNTHVPPTFGQGTKVEIERTVAAPSVFIFPPSDEQLKSGTASVVCLLNNFYPREAKVQWKVDNALQSGNSQESVTEQDSKDSTYSLSSTLTLSKADYEKHKVYACEVTHQGLSSPVTKSFNRGEC
notes: as for B1
With B4, in test [1], the He/Con_1a is 102 % of control GpH7-A5/GpH7-B3/GpL16-k0 (=100). In addition, the He/Con_2b in test [2] was 94.6 % of control GpH7-A5/GpH7-B3/GpL16-k0 (=100).

B5: GpH7-A5/GpH7-B3 variant E333_05P/GpL16-k0 (antibody, human IgG1, kappa)
heavy 1: not shown
heavy 2: not shown
light: DIVMTQSPLSLPVTPGEPASISCQASESLVHSNRNTYLHWYLQKPGQSPQLLIYKVSNRFSGVPDRFSGSGSGTDFTLKISRVEAEDVGVYYCSQNTHVPPTFGQGTKVEIERTVAAPSVFIFPPSDEQLKSGTASVVCLLNNFYPREAKVQWKVDNALQSGNSQESVTEQDSKDSTYSLSSTLTLSKADYEKHKVYACEVTHQGLSSPVTKSFNRGEC
notes: as for B1
With B5, in test [1], the He/Con_1a is 102 % of control GpH7-A5/GpH7-B3/GpL16-k0 (=100). For the same molecule, the He/Con_2b in test [2] was 97.7 % of control GpH7-A5/GpH7-B3/GpL16-k0 (=100).

B6: GpH7-A5/GpH7-B3 variant P271_07I/GpL16-k0 (antibody, human IgG1, kappa)
heavy 1: not shown
heavy 2: not shown
light: DIVMTQSPLSLPVTPGEPASISCQASESLVHSNRNTYLHWYLQKPGQSPQLLIYKVSNRFSGVPDRFSGSGSGTDFTLKISRVEAEDVGVYYCSQNTHVPPTFGQGTKVEIERTVAAPSVFIFPPSDEQLKSGTASVVCLLNNFYPREAKVQWKVDNALQSGNSQESVTEQDSKDSTYSLSSTLTLSKADYEKHKVYACEVTHQGLSSPVTKSFNRGEC
notes: as for B1
As for B6, in test [1], the He/Con_1a was 102 % of control GpH7-A5/GpH7-B3/GpL16-k0 (=100). In test [2], the He/Con_2b is 76.8 % of control GpH7-A5/GpH7-B3/GpL16-k0 (=100).

B7: GpH7-A5/GpH7-B3 variant P271_16H/GpL16-k0 (antibody, human IgG1, kappa)
heavy 1: not shown
heavy 2: not shown
light: DIVMTQSPLSLPVTPGEPASISCQASESLVHSNRNTYLHWYLQKPGQSPQLLIYKVSNRFSGVPDRFSGSGSGTDFTLKISRVEAEDVGVYYCSQNTHVPPTFGQGTKVEIERTVAAPSVFIFPPSDEQLKSGTASVVCLLNNFYPREAKVQWKVDNALQSGNSQESVTEQDSKDSTYSLSSTLTLSKADYEKHKVYACEVTHQGLSSPVTKSFNRGEC
notes: as for B1
On to B7, for which, in test [1], the He/Con_1a is 102 % of control GpH7-A5/GpH7-B3/GpL16-k0 (=100). In addition, the He/Con_2b in test [2] was 67.9 % of control GpH7-A5/GpH7-B3/GpL16-k0 (=100).

B8: GpH7-A5/GpH7-B3 variant E333_06M/GpL16-k0 (antibody, human IgG1, kappa)
heavy 1: not shown
heavy 2: not shown
light: DIVMTQSPLSLPVTPGEPASISCQASESLVHSNRNTYLHWYLQKPGQSPQLLIYKVSNRFSGVPDRFSGSGSGTDFTLKISRVEAEDVGVYYCSQNTHVPPTFGQGTKVEIERTVAAPSVFIFPPSDEQLKSGTASVVCLLNNFYPREAKVQWKVDNALQSGNSQESVTEQDSKDSTYSLSSTLTLSKADYEKHKVYACEVTHQGLSSPVTKSFNRGEC
notes: as for B1
In the case of B8, the He/Con_1a in test [1] was 102 % of control GpH7-A5/GpH7-B3/GpL16-k0 (=100). In addition, the He/Con_2b in test [2] is 85.4 % of control GpH7-A5/GpH7-B3/GpL16-k0 (=100).

B9: GpH7-A5/GpH7-B3 variant E333_07I/GpL16-k0 (antibody, human IgG1, kappa)
heavy 1: not shown
heavy 2: not shown
light: DIVMTQSPLSLPVTPGEPASISCQASESLVHSNRNTYLHWYLQKPGQSPQLLIYKVSNRFSGVPDRFSGSGSGTDFTLKISRVEAEDVGVYYCSQNTHVPPTFGQGTKVEIERTVAAPSVFIFPPSDEQLKSGTASVVCLLNNFYPREAKVQWKVDNALQSGNSQESVTEQDSKDSTYSLSSTLTLSKADYEKHKVYACEVTHQGLSSPVTKSFNRGEC
notes: as for B1
For B9, in test [1], the He/Con_1a was 102 % of control GpH7-A5/GpH7-B3/GpL16-k0 (=100). The He/Con_2b in test [2] was 96.2 % of control GpH7-A5/GpH7-B3/GpL16-k0 (=100).

B10: GpH7-A5/GpH7-B3 variant P271_04F/GpL16-k0 (antibody, human IgG1, kappa)
heavy 1: not shown
heavy 2: not shown
light: DIVMTQSPLSLPVTPGEPASISCQASESLVHSNRNTYLHWYLQKPGQSPQLLIYKVSNRFSGVPDRFSGSGSGTDFTLKISRVEAEDVGVYYCSQNTHVPPTFGQGTKVEIERTVAAPSVFIFPPSDEQLKSGTASVVCLLNNFYPREAKVQWKVDNALQSGNSQESVTEQDSKDSTYSLSSTLTLSKADYEKHKVYACEVTHQGLSSPVTKSFNRGEC
notes: as for B1
In the case of B10, in test [1], the He/Con_1a was 102 % of control GpH7-A5/GpH7-B3/GpL16-k0 (=100). Besides, the He/Con_2b in test [2] is 59.5 % of control GpH7-A5/GpH7-B3/GpL16-k0 (=100).

B11: GpH7-A5/GpH7-B3 variant E333_02A/GpL16-k0 (antibody, human IgG1, kappa)
heavy 1: not shown
heavy 2: not shown
light: DIVMTQSPLSLPVTPGEPASISCQASESLVHSNRNTYLHWYLQKPGQSPQLLIYKVSNRFSGVPDRFSGSGSGTDFTLKISRVEAEDVGVYYCSQNTHVPPTFGQGTKVEIERTVAAPSVFIFPPSDEQLKSGTASVVCLLNNFYPREAKVQWKVDNALQSGNSQESVTEQDSKDSTYSLSSTLTLSKADYEKHKVYACEVTHQGLSSPVTKSFNRGEC
notes: as for B1
Consider B11, for which, in test [1], the He/Con_1a is 103 % of control GpH7-A5/GpH7-B3/GpL16-k0 (=100). The He/Con_2b in test [2] was 83.8 % of control GpH7-A5/GpH7-B3/GpL16-k0 (=100).

B12: GpH7-A5/GpH7-B3 variant I332_12R/GpL16-k0 (antibody, human IgG1, kappa)
heavy 1: not shown
heavy 2: not shown
light: DIVMTQSPLSLPVTPGEPASISCQASESLVHSNRNTYLHWYLQKPGQSPQLLIYKVSNRFSGVPDRFSGSGSGTDFTLKISRVEAEDVGVYYCSQNTHVPPTFGQGTKVEIERTVAAPSVFIFPPSDEQLKSGTASVVCLLNNFYPREAKVQWKVDNALQSGNSQESVTEQDSKDSTYSLSSTLTLSKADYEKHKVYACEVTHQGLSSPVTKSFNRGEC
notes: as for B1
For B12, in test [1], the He/Con_1a is 100 % of control GpH7-A5/GpH7-B3/GpL16-k0 (=100). The He/Con_2b in test [2] was 48.9 % of control GpH7-A5/GpH7-B3/GpL16-k0 (=100).

B13: GpH7-A5/GpH7-B3 variant E333_03V/GpL16-k0 (antibody, human IgG1, kappa)
heavy 1: not shown
heavy 2: not shown
light: DIVMTQSPLSLPVTPGEPASISCQASESLVHSNRNTYLHWYLQKPGQSPQLLIYKVSNRFSGVPDRFSGSGSGTDFTLKISRVEAEDVGVYYCSQNTHVPPTFGQGTKVEIERTVAAPSVFIFPPSDEQLKSGTASVVCLLNNFYPREAKVQWKVDNALQSGNSQESVTEQDSKDSTYSLSSTLTLSKADYEKHKVYACEVTHQGLSSPVTKSFNRGEC
notes: as for B1
Turning to B13, in test [1], the He/Con_1a is 105 % of control GpH7-A5/GpH7-B3/GpL16-k0 (=100). Further, the He/Con_2b in test [2] is 93.2 % of control GpH7-A5/GpH7-B3/GpL16-k0 (=100).

B14: GpH7-A5/GpH7-B3 variant P271_15Y/GpL16-k0 (antibody, human IgG1, kappa)
heavy 1: not shown
heavy 2: not shown
light: DIVMTQSPLSLPVTPGEPASISCQASESLVHSNRNTYLHWYLQKPGQSPQLLIYKVSNRFSGVPDRFSGSGSGTDFTLKISRVEAEDVGVYYCSQNTHVPPTFGQGTKVEIERTVAAPSVFIFPPSDEQLKSGTASVVCLLNNFYPREAKVQWKVDNALQSGNSQESVTEQDSKDSTYSLSSTLTLSKADYEKHKVYACEVTHQGLSSPVTKSFNRGEC
notes: as for B1
Turning to B14, in test [1], the He/Con_1a was 103 % of control GpH7-A5/GpH7-B3/GpL16-k0 (=100). Further, the He/Con_2b in test [2] was 52.3 % of control GpH7-A5/GpH7-B3/GpL16-k0 (=100).

The values above are taken from patent publication US20180155451A1 (published 2018).
